# Measurements as given in patent US20030039658.
# Key:
# [1] = target: FLAG-tagged DSIF p160 (FT-DSIFp160) (UniProt O00267)
# [2] = target: RPB1, the largest (220 kDa) subunit of Pol II, within purified Pol II (UniProt P24928)
# [3] = target: rGST-CTD, recombinant glutathione-S-transferase fusion protein containing a portion of the CTD of RPB1 of Pol II (UniProt P24928)
# Cyclin T1, sequence (chain, as listed by the source): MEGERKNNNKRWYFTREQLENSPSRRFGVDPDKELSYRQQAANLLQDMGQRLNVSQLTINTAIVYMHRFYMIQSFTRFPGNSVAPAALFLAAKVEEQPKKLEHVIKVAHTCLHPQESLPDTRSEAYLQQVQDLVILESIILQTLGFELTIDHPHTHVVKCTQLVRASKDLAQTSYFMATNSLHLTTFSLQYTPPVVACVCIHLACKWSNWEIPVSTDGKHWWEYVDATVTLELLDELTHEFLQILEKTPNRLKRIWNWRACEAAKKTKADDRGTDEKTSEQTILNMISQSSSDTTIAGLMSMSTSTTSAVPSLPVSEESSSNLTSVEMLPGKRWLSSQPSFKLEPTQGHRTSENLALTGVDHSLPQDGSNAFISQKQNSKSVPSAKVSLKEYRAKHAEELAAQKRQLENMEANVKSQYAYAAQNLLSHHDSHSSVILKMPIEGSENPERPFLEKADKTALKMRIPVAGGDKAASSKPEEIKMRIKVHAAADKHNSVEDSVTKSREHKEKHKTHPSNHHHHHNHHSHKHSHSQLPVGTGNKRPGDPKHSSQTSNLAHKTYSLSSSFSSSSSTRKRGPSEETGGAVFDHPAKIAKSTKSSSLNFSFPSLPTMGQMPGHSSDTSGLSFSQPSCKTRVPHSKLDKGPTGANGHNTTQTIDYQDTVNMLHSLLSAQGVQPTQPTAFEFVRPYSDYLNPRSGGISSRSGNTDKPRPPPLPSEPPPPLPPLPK
Substance,in vitro kinase assay (autophosphorylation of the preparation) (Cyclin T1),in vitro kinase assay (phosphorylation of the substrate) [1],in vitro kinase assay (phosphorylation of the substrate) [2],in vitro kinase assay (phosphorylation of the substrate) [3]
FLAG-tagged CDK9 (FT-CDK9),"The FT-CDK9 immunopurification autophosphorylates specific components circa 45 kD and 87 kD, consistent with the molecular weights expected for Cyclin T1 and a FT-CDK9","the immunopurified f:CDK9 actively phosphorylated a circa 160 kDa polypeptide, most likely f:DSIF p160, within an immunopurified f:DSIF p160 preparation",The f:CDK9 immunopurified preparation was able to phosphorylate both rGST-CTD and RPB1 within Pol II,The f:CDK9 immunopurified preparation was able to phosphorylate both rGST-CTD and RPB1 within Pol II
"FLAG-tagged CDK9M (FT-CDK9M), CDK9 with the D167N mutation",The FT-CDK9M immunopurification was significantly weaker in its ability to autophosphorylate the 87 kD band,,significantly impaired in its ability to phosphorylate either rGST-CTD or RPB1 within Pol II,significantly impaired in its ability to phosphorylate either rGST-CTD or RPB1 within Pol II
